The values below come from PMC12669751, “Immunodominant antibodies against hemagglutinin in ferrets following infection with 2018 to 2019 influenza vaccine strains” (NPJ Vaccines, 2025).

The experiment addresses TX/50 egg-version rHA1 (Influenza A virus A/Texas/50/2012 …, UniProt R4L1D1, strain). As to the kind of experiment: BLI. As to conditions: one partner purified.

B1: monoclonal antibody FluA-20 (antibody, V domains shown)
VH: QVQLEESGPGLVKPSETLSLTCSVSGVSVTSDIYYWTWIRQPPGKGLEWIGYIFYNGDTNYNPSLKSRVTMSIDTSKNEFSLRLTSVTAADTAVYFCARGTEDLGYCSSGSCPNHWGQGTLVTVSS
VL: DIVMTQSPSSLSASIGDRVTITCRPSQNIRSFLNWFQHKPGKAPKLLIYAASNLQSGVPSRFSGSGSGTEFTLTIRSLQPEDFATYYCQQSYNTPPTFGQGTKVEIK
notes: also called FluA-20 mAb; pan-H3 anti-HA1 mAb; copies: 2 + 2
With B1, the binding result was “binds”.
